Assay results taken from patent US20090192084A1.
Blank lines part the entries; values can stand above or below the substance they belong to.

Assays:
[1] = biological target: Ubiquitin conjugation factor E4 B, UBE4B (Ufd2ortholog) (human) (UniProt O95155); assay: Flag co-IP, MudPIT MS, DMSO
[2] = biological target: BTB/POZ domain-containing protein 2. BTBD2 (human) (UniProt Q9BX70); assay: Flag co-IP, MudPIT MS, DMSO
[3] = biological target: RING finger protein 12. RLIM (human) (UniProt Q9NVW2); assay: Flag co-IP, MudPIT MS, DMSO
Cullin 1 (human) = Cullin 1 (human) (UniProt Q13616); assay: Flag co-IP, MudPIT MS, DMSO
[4] = biological target: Kelch repeat and BTB domain-containing protein 7, KBTB7 (human) (UniProt Q8WVZ9); assay: Flag co-IP, MudPIT MS, DMSO
VCIP135 (human) = biological target: T1, VCIP135 (human) (UniProt Q96JH7); assay: Flag co-IP, 293 cells, MudPIT MS
T1 sequence (looked up): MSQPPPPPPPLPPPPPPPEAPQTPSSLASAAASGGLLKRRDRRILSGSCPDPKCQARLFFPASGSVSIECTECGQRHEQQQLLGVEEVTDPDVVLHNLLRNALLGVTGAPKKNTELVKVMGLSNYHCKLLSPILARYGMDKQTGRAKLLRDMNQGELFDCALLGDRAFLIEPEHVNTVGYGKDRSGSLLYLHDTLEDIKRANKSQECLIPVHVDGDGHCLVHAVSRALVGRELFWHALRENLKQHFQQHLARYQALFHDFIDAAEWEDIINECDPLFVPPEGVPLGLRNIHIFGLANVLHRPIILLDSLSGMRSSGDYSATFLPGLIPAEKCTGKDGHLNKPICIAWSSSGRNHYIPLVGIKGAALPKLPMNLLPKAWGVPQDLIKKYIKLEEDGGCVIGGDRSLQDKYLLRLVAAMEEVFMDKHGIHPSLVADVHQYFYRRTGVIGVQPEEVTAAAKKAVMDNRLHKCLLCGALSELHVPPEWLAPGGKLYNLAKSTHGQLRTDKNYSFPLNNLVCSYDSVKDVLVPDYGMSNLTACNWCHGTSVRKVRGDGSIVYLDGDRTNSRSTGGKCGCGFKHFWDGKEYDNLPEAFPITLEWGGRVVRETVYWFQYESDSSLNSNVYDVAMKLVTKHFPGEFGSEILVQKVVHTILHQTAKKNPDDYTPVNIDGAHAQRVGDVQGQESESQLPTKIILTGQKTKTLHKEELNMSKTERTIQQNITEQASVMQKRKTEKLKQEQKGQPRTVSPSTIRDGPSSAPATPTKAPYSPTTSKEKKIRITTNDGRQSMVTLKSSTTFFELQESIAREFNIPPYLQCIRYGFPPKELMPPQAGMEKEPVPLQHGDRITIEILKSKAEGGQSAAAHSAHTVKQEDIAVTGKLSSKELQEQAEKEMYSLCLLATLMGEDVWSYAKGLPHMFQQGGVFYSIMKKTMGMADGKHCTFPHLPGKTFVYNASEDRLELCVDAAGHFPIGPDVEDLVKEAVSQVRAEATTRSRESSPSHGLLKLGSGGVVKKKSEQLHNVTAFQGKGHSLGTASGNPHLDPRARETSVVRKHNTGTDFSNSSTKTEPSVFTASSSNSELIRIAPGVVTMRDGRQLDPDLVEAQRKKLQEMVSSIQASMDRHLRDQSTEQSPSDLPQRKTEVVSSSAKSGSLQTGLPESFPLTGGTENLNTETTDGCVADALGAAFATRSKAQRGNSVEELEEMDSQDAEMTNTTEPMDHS

[5] = biological target: Kelch domain-containing protein 2, KLDC2 (human) (UniProt Q9Y2U9); assay: Flag co-IP, MudPIT MS, DMSO
Sequence of Kelch domain-containing protein 2, KLDC2 (human) (Q9Y2U9 whole entry, the tested form may be a part): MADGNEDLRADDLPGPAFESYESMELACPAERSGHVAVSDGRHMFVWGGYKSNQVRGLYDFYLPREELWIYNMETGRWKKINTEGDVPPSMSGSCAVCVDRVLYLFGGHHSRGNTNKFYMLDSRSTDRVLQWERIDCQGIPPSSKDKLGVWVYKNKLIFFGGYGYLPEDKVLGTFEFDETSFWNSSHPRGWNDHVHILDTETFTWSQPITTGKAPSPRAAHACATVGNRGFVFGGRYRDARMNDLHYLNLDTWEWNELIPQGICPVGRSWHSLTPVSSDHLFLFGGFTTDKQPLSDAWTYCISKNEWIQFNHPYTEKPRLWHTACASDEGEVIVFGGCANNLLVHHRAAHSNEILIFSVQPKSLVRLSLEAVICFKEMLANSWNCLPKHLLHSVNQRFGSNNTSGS

Cullin 4A (human) = Cullin 4A (human) (UniProt Q13619); assay: Flag co-IP, MudPIT MS, DMSO
[6] = biological target: Bromodomain and WD-repeat domain-containing protein 1. WDR9 (human) (UniProt Q9NSI6); assay: Flag co-IP, MudPIT MS, DMSO
[7] = biological target: Bromodomain and WD-repeat domain-containing protein 2, WDR 1 I (human) (UniProt Q9BZH6); assay: Flag co-IP, MudPIT MS, DMSO
Sequence of Bromodomain and WD-repeat domain-containing protein 2, WDR 1 I (human) (Q9BZH6 whole entry, the tested form may be a part): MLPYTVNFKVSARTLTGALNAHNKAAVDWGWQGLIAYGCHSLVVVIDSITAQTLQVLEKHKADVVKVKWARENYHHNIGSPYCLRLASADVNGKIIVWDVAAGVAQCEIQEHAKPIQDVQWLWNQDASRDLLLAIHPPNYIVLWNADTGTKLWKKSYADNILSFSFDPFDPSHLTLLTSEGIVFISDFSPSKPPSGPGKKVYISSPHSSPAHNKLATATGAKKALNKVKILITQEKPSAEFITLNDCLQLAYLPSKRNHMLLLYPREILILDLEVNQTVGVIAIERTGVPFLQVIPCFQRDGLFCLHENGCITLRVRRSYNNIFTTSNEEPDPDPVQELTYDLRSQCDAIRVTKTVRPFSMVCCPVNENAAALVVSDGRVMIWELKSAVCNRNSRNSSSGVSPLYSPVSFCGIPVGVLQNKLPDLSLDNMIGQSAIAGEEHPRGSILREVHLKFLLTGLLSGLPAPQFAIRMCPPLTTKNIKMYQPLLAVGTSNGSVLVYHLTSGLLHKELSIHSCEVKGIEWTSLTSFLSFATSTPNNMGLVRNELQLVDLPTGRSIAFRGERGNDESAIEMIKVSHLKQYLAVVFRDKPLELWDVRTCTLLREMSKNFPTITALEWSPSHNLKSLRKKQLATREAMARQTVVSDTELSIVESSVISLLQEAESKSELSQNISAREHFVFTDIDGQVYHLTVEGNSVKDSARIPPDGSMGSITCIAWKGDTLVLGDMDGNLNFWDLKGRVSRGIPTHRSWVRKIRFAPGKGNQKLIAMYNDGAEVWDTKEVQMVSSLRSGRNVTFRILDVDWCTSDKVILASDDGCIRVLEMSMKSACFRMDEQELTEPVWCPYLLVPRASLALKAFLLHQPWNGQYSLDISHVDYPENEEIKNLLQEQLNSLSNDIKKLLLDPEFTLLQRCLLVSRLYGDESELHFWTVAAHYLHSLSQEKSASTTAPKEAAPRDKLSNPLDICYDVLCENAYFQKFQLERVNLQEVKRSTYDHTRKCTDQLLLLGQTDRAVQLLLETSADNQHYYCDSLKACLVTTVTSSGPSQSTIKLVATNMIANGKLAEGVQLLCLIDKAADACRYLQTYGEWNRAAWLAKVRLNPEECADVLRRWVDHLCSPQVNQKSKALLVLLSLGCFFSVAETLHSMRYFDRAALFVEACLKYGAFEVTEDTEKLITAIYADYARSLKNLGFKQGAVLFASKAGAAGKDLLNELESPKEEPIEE

Cullin 4B (human) = Cullin 4B (human) (UniProt Q13620); assay: Flag co-IP, MudPIT MS, DMSO
Elongin B (human) = Elongin B (human) (UniProt Q15370); assay: Flag co-IP, MudPIT MS, DMSO
Sequence of Elongin B (human) (Q15370 other isoform, or with tags, fused parts or gaps limits assumed): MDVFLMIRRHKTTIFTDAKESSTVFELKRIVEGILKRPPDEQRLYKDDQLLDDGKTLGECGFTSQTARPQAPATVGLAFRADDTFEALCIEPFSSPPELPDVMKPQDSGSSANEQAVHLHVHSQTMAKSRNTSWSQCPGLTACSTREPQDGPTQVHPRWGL

SKP1 (human) = SKP1 (human) (UniProt P63208); assay: Flag co-IP, MudPIT MS, DMSO
Sequence of SKP1 (human) (P63208 2-163 limits assumed): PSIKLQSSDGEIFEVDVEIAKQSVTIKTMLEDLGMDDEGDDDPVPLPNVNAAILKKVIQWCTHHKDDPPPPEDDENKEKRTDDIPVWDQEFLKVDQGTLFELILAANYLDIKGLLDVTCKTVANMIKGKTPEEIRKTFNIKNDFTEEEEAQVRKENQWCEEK

[8] = biological target: Bromodomain and WD-repeat domain-containing protein 3, BRWD3 (human) (UniProt Q6RI45); assay: Flag co-IP, MudPIT MS, DMSO
Sequence of Bromodomain and WD-repeat domain-containing protein 3, BRWD3 (human) (Q6RI45 whole entry, the tested form may be a part): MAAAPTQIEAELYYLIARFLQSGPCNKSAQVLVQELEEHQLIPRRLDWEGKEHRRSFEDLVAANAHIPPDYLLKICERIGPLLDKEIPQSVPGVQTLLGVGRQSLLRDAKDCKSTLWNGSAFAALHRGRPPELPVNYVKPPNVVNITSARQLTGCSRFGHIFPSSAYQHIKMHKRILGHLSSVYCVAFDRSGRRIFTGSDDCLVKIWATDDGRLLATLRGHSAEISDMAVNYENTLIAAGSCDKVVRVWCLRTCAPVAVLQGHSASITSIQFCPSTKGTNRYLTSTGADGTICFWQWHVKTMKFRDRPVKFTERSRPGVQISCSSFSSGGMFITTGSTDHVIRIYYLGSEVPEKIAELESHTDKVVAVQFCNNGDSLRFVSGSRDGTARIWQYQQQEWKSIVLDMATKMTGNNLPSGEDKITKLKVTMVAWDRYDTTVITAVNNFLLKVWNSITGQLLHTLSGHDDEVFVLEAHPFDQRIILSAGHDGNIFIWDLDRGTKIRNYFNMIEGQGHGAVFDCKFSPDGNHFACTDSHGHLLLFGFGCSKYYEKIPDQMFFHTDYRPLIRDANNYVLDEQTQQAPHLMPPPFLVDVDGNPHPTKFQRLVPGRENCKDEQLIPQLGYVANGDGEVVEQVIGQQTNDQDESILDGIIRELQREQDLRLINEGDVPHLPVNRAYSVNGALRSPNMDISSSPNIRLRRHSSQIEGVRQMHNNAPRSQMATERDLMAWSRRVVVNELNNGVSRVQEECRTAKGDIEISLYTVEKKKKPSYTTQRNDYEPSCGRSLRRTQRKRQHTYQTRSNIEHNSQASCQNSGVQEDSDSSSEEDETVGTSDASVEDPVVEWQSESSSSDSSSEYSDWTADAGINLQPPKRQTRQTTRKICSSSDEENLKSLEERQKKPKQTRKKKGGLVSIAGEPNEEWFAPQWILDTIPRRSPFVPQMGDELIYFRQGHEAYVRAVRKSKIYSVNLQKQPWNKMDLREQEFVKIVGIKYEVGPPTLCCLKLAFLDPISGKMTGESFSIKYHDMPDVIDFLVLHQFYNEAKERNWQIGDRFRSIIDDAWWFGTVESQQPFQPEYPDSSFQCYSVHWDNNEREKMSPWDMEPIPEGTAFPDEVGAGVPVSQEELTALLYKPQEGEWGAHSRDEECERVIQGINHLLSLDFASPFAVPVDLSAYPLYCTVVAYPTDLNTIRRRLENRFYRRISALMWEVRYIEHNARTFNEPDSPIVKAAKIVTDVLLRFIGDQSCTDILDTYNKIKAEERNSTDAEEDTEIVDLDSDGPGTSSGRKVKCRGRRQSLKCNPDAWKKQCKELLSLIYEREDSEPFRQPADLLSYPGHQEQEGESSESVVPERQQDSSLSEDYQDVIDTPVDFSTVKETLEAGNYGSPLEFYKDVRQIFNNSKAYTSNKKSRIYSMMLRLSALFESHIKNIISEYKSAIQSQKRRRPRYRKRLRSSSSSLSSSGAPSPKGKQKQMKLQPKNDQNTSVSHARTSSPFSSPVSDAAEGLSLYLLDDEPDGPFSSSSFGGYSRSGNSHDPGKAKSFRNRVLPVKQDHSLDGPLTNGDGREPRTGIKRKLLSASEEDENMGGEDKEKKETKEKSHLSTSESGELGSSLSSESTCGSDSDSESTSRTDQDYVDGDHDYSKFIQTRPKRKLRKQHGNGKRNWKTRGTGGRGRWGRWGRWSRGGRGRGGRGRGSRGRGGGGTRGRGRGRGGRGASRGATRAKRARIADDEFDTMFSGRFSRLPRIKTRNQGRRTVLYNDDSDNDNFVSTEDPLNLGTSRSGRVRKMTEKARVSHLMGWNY

[9] = biological target: E3 ubiquitin-protein ligase Topors (human) (UniProt Q9NS56); assay: Flag co-IP, MudPIT MS, MG132
Elongin C (human) = Elongin C (human) (UniProt Q15369); assay: Flag co-IP, MudPIT MS, DMSO
Sequence of Elongin C (human) (Q15369 whole entry): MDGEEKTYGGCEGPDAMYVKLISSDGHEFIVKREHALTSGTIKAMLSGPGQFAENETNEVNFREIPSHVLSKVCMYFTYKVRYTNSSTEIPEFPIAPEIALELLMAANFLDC

[10] = biological target: WD repeat protein Anti homolog. WDR68 (human) (UniProt P61962); assay: Flag co-IP, MudPIT MS, DMSO
Sequence of WD repeat protein Anti homolog. WDR68 (human) (P61962 whole entry): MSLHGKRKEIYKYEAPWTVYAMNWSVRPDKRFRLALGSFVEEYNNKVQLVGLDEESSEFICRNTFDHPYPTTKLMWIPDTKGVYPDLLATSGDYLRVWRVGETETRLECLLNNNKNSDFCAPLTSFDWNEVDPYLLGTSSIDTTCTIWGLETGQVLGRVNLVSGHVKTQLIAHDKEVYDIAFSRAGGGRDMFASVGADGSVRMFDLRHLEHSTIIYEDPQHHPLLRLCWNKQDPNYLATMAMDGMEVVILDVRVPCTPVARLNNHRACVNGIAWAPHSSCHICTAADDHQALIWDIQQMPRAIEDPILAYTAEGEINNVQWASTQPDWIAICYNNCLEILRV

[11] = biological target: Galectin-3 binding protein. LG3BP (human) (UniProt Q08380); assay: Flag co-IP, MudPIT MS, DMSO

Sequence of BTB/POZ domain-containing protein 2. BTBD2 (human) (Q9BX70 whole entry, the tested form may be a part): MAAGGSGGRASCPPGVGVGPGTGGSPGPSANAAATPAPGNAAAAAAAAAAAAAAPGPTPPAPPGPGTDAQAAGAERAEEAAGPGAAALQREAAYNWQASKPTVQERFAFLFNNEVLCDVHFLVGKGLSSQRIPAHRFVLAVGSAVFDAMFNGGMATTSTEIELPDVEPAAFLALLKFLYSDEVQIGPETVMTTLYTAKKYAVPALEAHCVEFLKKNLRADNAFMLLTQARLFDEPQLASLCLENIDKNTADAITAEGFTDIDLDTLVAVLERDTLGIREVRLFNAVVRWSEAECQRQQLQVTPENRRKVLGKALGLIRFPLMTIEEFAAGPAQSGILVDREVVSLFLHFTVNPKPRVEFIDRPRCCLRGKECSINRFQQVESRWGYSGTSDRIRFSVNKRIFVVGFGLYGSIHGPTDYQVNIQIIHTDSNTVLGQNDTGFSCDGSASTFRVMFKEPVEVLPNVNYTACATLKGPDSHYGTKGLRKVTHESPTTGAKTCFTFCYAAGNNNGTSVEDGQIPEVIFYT

abundance factor (AF) [1]: 1.1 | sequence count [1]: 2 | spectrum count [1]: 2 | abundance factor (AF) [2]: 2.9 | sequence count [2]: 2 | spectrum count [2]: 2 | abundance factor (AF) [3]: 3.5 | sequence count [3]: 2 | spectrum count [3]: 3 | abundance factor (AF) (Cullin 1 (human)): 6.5 | sequence count (Cullin 1 (human)): 5 | spectrum count (Cullin 1 (human)): 7 | abundance factor (AF) [4]: 2.1 | sequence count [4]: 2 | spectrum count [4]: 2 | sequence count (VCIP135 (human)): 2 | sequence coverage (VCIP135 (human)): 2.9% | spectrum count (VCIP135 (human)): 2
Substance: Flag-SAKS1 (from UniProt Q04323 1-297)

abundance factor (AF) [5]: 9.3 | sequence count [5]: 2 | spectrum count [5]: 3 | abundance factor (AF) (Cullin 4A (human)): 9.8 | sequence count (Cullin 4A (human)): 5 | spectrum count (Cullin 4A (human)): 6 | abundance factor (AF) [6]: 2.2 | sequence count [6]: 3 | spectrum count [6]: 4 | abundance factor (AF) [7]: 2.1 | sequence count [7]: 2 | spectrum count [7]: 2 | sequence count (Cullin 4B (human)): 7 | spectrum count (Cullin 4B (human)): 9 | abundance factor (AF) (Elongin B (human)): 16 | sequence count (Elongin B (human)): 2 | spectrum count (Elongin B (human)): 2 | abundance factor (AF) (SKP1 (human)): 30.7 | sequence count (SKP1 (human)): 3 | spectrum count (SKP1 (human)): 4 | abundance factor (AF) [8]: 1.4 | sequence count [8]: 2 | spectrum count [8]: 2 | abundance factor (AF) [9]: 0.6 | sequence count [9]: 3 | spectrum count [9]: 3
Substance: Flag-UBXD7 (from UniProt O94888 1-489)

abundance factor (AF) (Elongin C (human)): 7 | sequence count (Elongin C (human)): 2 | spectrum count (Elongin C (human)): 5 | abundance factor (AF) [10]: 0.9 | sequence count [10]: 2 | spectrum count [10]: 2 | abundance factor (AF) [11]: 0.8 | spectrum count [11]: 3 | sequence count (VCIP135 (human)): 11 | sequence coverage (VCIP135 (human)): 14.1% | spectrum count (VCIP135 (human)): 12
Substance: Flag-UBXD8 (from UniProt Q96CS3 1-445)
